Assay: yeast display, Sf9 membrane polyspecificity reagent, FACS + sequencing; frameworks hold sequencing errors
How it was run: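 After 36–48 hours of galactose induction, yeast (Saccharomyces cerevisiae BJ5465) displaying a synthetic nanobody library were stained at 4 °C for 1 hour with 10% biotinylated, detergent-solubilized Sf9 membrane reagent. Streptavidin microbeads enriched the stained cells before FACS sorting into low and high (top ~1%) gates on anti-HA and streptavidin fluorescence. Each clone's polyreactivity label reflects its gate of origin.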

Row | Sequence | polyreactivity (PSR sort gate)
1 | QVQLVESGGGLVQAGGSLRLRCAASANTFGFYAMGWYRQAPGKERELVAGITSGDSTYYADSVKGRFTISRDNAKNTVYLQMNSLKPEDSAVYYCATAPYVSSRRYGPYEYWGQGTQVTVSS | low polyreactivity
2 | QVQLVETGGGLLQAGGSLRISSAASGRIFPSFSMGWYRQAPGKERELVAAITRGGASTYYADSVKGRFTISRDNAKNTVYLQMNSLKPEDTAVYYCAKDAYRYGGLSWTTGMDYWGQGTQVTVSS | high polyreactivity
3 | QVQLVESGGGLVQAGGRLRLSCAASGGTFRLYTMASYRQAPGKERELVAGISSSSGSTYYADSVKGRFTISRDNAKNTVYLQMNSLKPEDTAVYYCAAYWPRSRYDYWGQGTQVTVSS | high polyreactivity
4 | QVQLVESGGGLVQAGGSLRLSCAASGFTIYHNAMGWYRQAPGKERELVAAISSSGDSTYYADSVKGRFTISRDNAKNTVYLQMNSLKPEDTAVYYCNDYFYYLSLYYYYWFNYDYWGQGTQVTVSS | low polyreactivity
5 | QVQLVESVGGLVQAGGRLRLSSAASGFTFAFHAMGSYRQAPGKERELVAAISCSGVSTYYADSVKWRFTLSRDNEKNTDYLQMNSLKPEDTAVKYCAVGAVASSHRAGGKRHEYWGQGTQVTLSS | low polyreactivity
6 | QVQLVESGGGLVQAGGSLRLSCAASGRIFTGNALGWYRQAPGKESELVAAITRNGGSTYYADSVKGRFTLSRDNAKNTVYVQMNSLKPEDTAVYYCAAKLSPVYYRRYDYWGQGTQVTVSS | high polyreactivity
7 | QVQLVESGGGLVQAGGSLRLSCAASGRTFRGNALGWYRQAHGKERELVAAITGTGGSTYYADSVKGRFTISRDNAKNTVYLQRNRLKPEDTAVYYCAAVLRGHNGLKFEYWGQGTQVTVSS | high polyreactivity
8 | QVQLVDSGGGLVQAGGSLRLSCAASGRNFSPYTMGWYRQAPGKVREMVAAIRSGDGRTYYADSVKGRFTISRDNAKNTVYLQMNSLKQEDTAVYYCAARRGKVYVSGNGYWGQGTQVTVSS | high polyreactivity
9 | QVQLVESGGGLVQAGGSLRLSCAASGRIFAIYAMGWYRQAPGKERELVAGITYSAGSTYYADSVKGRFTISRDNAKNTVYLQMNSLKREDTAVYYCAALEYTSHRYGYDYWGQGTQVTVSS | low polyreactivity
10 | QVQLVESGGGIVQAGGSLRLSCAASGIIFKAYAMGWYRKAPGKERELVAAITTGSTTYADSVKGRFTISRDNAKNTVYLQMNSLKPEDTAVYYCNARFDWGWPGYEYDYCGQGTQVTVSS | low polyreactivity
11 | QVQLVESGGGLVQAGGSLRLSCAASGRTFRRYAMGWYRQAPGKEREWVAAISRTGSTNNYADSVKGRFTISRDNAKKTVYLQLNSLKPEDTAVYDCNGQLILGYGYDYWGQGTQVTVSS | high polyreactivity
12 | QVQLVESGGGLVQAGGSLRLSCAASGFTFYLYTMGWYRQAPGNESELVATITSDGGTNYADSVKGRFTISRDNAKNTVYLQMNSLKPEDTAVYYFNAASRRGSRKQAKYDYWGQGTQVTVSS | low polyreactivity
13 | QVQLVESGGGLVQAGGSLRLSCSASGFIFQGYAMGWDRQAPGKERELVATITTSSRTYYADSVKGRFTISRDNAKNTVYLQMYSLKPEDTAVYYCATRGSYRSQRWYGYWGQGTQVTVSS | high polyreactivity
14 | QVQLVESGGGLVQAGGSLRLSCAASGSTFPDYVMGRYRQAPGKERELVAAFSSIGGSTYYADSVKGRFTISRDNAKNTVYLQMNCLKPEDTAVYYCAAENSYFYPFDYWGQGTQVTVSS | low polyreactivity
15 | QVQLQESAGGLVQAGGSLRLRCSASGYISCDASMGWYRQAPRKERELAASITKGSSTNYADSVKGRFTIRDNAKNSVYLQMNSLKPEDTAVFYCAVTYPYWGDYTYWGQGTQVTVSS | low polyreactivity
16 | QVQLHESGGGLVQAGGSLRLSCAASGTISYAGPMGWYRQAPGKEREFVAGIGVGSNTNYADSVKGRYTIIRDNAKNTVYLQMNSLNPEDTAVYYCAVGGYDPLGRPYWGQGTQVTVSS | low polyreactivity
17 | QVQLVDSRGGLVQAGGSLRLSCAASGSTFVNYAMGWYRQAPGKAWELVAAITANGGRTYYADSVKGRFTISRDNAKNTVYLQMNSLKPEDTAVYYCNTESNLYRRRRNYWGQGTQVTVSS | low polyreactivity
18 | QVQLVESGGGLVQAGGSLRLSCAASGSTFRVYAMGWYRQAPGKERELVAAISWSAGSTYYADSVKGRFTISRDNAKNTVYLQMNSLKPEDTAVYYCNADPDRYDWYTYLYLADYWGQGTQVTVSS | low polyreactivity
19 | QVQLVESGGGLVQAGGSLRLSCAASGRISWGYAMGWYRQAPGKERELVAVINFNGGRTYYADSVKGRFTISRDNAKNTVYLQMNSLKAEDTAVYYCAADSGYEYDYWGQGTQVTVSS | low polyreactivity
20 | QVQLVESGGGLVQAGGSLRLSCAASGSTFYSYAMGWYRQAPGKERELVAAISWNGGSTYYADSVKGRFTISRDNAKNTVYLQMNRLKPEDTAVYYCAALRYVHGYDYWGQGTQVTVSS | high polyreactivity
21 | QVQLVESGGGLVQAGGSLRLSCAASGSIFGSNTMGWYRQAPGKEREFVAAISFSGGSTYYADSVKGRFTISRDNAKNTVYLQLNSLKPEDTAVYYWAARQSRVGTSFYYSRRDYWGQGTEVTVSS | high polyreactivity
22 | QVQLVESGGGLVQAGGSLRLSCAASGITFYLYAMGWYRQAPGKERELVASITTDDSTNYADSVKGRFTISRDNAKNTVYLLMNSLKPEDTAVYYCATASYHRHHHGYDYWGQGTQVTVSS | low polyreactivity

Row | Sequence | polyreactivity (PSR sort gate)
23 | QVQLVESAGALVQAGGRLRLSCAASGRTFRKYAMGWYRQAPGTERELVAAISWSGGSTYYANSVKGRFTISRDNAKNTVYLQMNSLKPEDTAVYYWAAVPVHTGSLYWGFTTGYDYWGQGTQVTVSS | low polyreactivity
24 | QVQLVESGGGLVQAGGSLRLSCAASGFIFDQYAMGWYRQAPGKERELVATITSDGDTYYADSVKGRFTISRDNAKNTVYLHMISLKPEDSAVYYCAVEPGPYTTGYDYWGQGTQVTVSS | low polyreactivity
25 | QVLLVESGGGIVQAGGSLRLSCAASGSIIEPNAMGWYRQEPGQEREFVAAISGSGGSTYYADSVKGRFTSSRDNAKNTVYLQRNSLKPEYSAVYYCNALYLRTTPQDYDYWGQGTQVTVSS | high polyreactivity
26 | QVQLVESGGGLVQAGGSLRLSCAASGFTFYRYAMGWYRQAPGKERELVAAITSAGSTYYADSVKGRFTISRDNAKNTVYLQMNSLKPEDTAVSYCNAVGYFSYRDRDSEYYYNYGSWGQGTQVTVSS | low polyreactivity
27 | QVQLVESGGGLVQAGGSLRLSCAASGRTFVINSMGWYRQAPGKERELVAAITWGGGSTYYADSVKGRFTISRDNAKNTVYLQMNSLKPEDTAVYYCATSYSVQYGGSGYYWGQGTQVTVSS | low polyreactivity
28 | QVQLVESGGGLVQAGGSLRLSCAASGRIFSGNTMGWYRPAPGKERELVAAISKSGGRTYYADSVKGRFPISRVNAKNTVYLQMNSLKPEDTAVYYCNADYRSHYLYDYWGQGTQVTVSS | low polyreactivity
29 | QVQLVESGGGLVQAGGSLRLSCAASGSTFGINDMGRYRQAPGKERELVASITRRGGTTYYADSVKGRFTISRDNAKNTVYLHMNSLKPEDTAVYYCNKTYRYGTPLYDYWGQGTQVTVSS | high polyreactivity
30 | QVQLVESGGGLVQAGGSLRLSCAASGRIFRLYAMGWYSQEPGKDRELVATITSGGTYYADSVKGRFTISRDNAKNTVYLQMISLSPEDTAVYYCTARRRLRYDFWGQGTQVTVSS | low polyreactivity
31 | QVQLVESGGGLVQEGGSLRLSCAACGRTFSWYAMGWYRQAPGKDRELVAAITSGGSTYYADSVKGRFTISRDNAMNTVYLQMNSLKPEDTAVYYCAAQAYVEGVYRYDYWGQGTQVTVSS | low polyreactivity
32 | QVQLVESGGGLVQAGGSLRLSCAASGSTFSNYAMGGYRQAPGKERELVAAITSGGTTNYADSVKGRFTISRDNAKNTVYLQMNSLKPEDTAVYYCAKRYSYHVPTHIWVEYYYWGQGTQVTVSS | low polyreactivity
33 | QVQLVESGGGLVQAGGSLRLSCAASGRIIGTNAMGWYRQAPGKEREMVAAITWRGGSTYYADSVKGRFTYSRDNAKNTVYLQKNSLKPEDTAVYYCNKDPPRFSGLDENDWGQGTQVTVSS | low polyreactivity
34 | QVQLVESGGGLVQAGGSLRLRCAASGRTLYRYAMGWYRQAPGKEREFVAAISSSGGSTYYADSVKGSFTISRDNAKNTVYLQMNSLKPEDTAVYYCAARYGSSYAWSNYWGQGTQVTVSS | high polyreactivity
35 | QVQLVESGGGLVQAGGSLRLSCAASGYTLYLNAMGWYRQAPGKERELFARISGGGSTNYADSVKGRFTISRDNAKNTVYLQMNSLKPEDTAVYYCAATIFAYGYRSFKLDYWGQGTQVTVSS | low polyreactivity
36 | QVQIVESGGGLVQAGGSLRLSFAASGRIFYNYALGWYRQAPGKERELVAAISGSGGSTYYADSVKGRFTISRDNAKNTVYLQMNSLKPEVTAVYYCSTSGPQYYSRNFDYWGQGTQVTVSS | low polyreactivity
37 | QVQLVESGGGLVQAGGSLRLSCAASGSILDFNAMGWYRQAPGKERELVAAISDSSGSTFYAVSVKGRFTISRDNAKNTVYLLMISLKPEDTAVYYCAARLGFYPYGYTSWYTVYFWGQGTQVTVSS | low polyreactivity
38 | QLQRVESGGGLVQAGGSLRLSCAASGSTFYPNAMGWYRQAPAKEREFVAAISTSAGRTYYADSVKGRFTISRDNAKNTVYLQMNSLKPEDTAVYYCNARYWVYYVYEYDSWGQGTQVTVSS | low polyreactivity
39 | QVQLVESGGGLVQAGGSLRLSCAASARIFPWNAMGWYRQAPGKERELVAAITSGGGTTYYADSVKGRFTISRDNAKNTVYLQMNSLKPEDTAVYYCATPWEGSSTADYRISVYYWGQGTQVTVSS | low polyreactivity
40 | QVQLVESGGGLVQAGGSLRLSCAASGSIFDSYAMGWYRQAPGKERELVATINTSGGSTYYADSVKGRFTIHDNAKNTVYLQMNSLKPEDTAVYYCAVVVHYSTIGGGYRPRMYYWGQGTQVTVSS | low polyreactivity
41 | QVQLVESGGGLVQAGGSLRLSCAASGSTFFYYDMGWYRQAPGKERELVAAITSGGSTYYADSVKGLFTISRDNAKNTVYLHMNSLKPEDTAVYYCNAESYFWDFYDYDHWGQGTQVTVSS | low polyreactivity
42 | QVQLVESGGGLVQAGGSLRLSCAASGSIFNRYAMGWYRQAPRKERELVAAITAGGSSTYYADSVKGRFTISRDNAKNTVYLQMNSLKPEDTAVYYCNAVWWHPKDYDYWGQGTQVTVSS | low polyreactivity
43 | QVQLVESGGGLVQAGGSLRLSCAASGRTFRAYAMGWYRQAPGKERELVAAISSRGGSTYYADSVKGRFTISRDNAKNTVYLQMNSLKPEDTAVYYCNVDRYVRGLITFDYWGQGTQVTVSS | high polyreactivity

From the nanobody polyreactivity screen of Harvey et al. (2022)
